Positions count from the first letter of the chain named.
T1: recombinant human CD14 (B294801, histidine tagged) (Homo sapiens, UniProt P08571)
T1 construct: His; purchased Shanghai BaiYing Biotechnology Co., Ltd B294801 (Batch number 20200518A22)
T1 sequence (P08571 20-345): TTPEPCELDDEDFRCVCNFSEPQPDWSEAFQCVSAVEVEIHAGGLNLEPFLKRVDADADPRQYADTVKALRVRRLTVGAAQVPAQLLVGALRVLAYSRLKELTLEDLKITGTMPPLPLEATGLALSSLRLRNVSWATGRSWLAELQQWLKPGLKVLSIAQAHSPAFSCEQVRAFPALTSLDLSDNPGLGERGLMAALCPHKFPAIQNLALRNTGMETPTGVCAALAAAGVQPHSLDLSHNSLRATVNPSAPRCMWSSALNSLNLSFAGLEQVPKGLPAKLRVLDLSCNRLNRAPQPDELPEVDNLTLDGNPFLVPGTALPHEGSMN

B1: D6DD3D005: humanized anti-CD14 antibody; VH SEQ ID NO: 17, VL SEQ ID NO: 19 (antibody, V domains shown)
VH: QVQLQESGPGLVKPSETLSLTCTVSGYSITSDSAWNWIRQPPGKGLEWIGYISYSGSTSYNPSLKSRVTISRDTSKNQFSLKLSSVTAADTAVYYCVRGLRFAYWGQGTLVTVSS
VL: EIVLTQSPATLSLSPGERATLSCRASESVDSYVNSFLHWYQQKPGQAPRLLIYRASNLQSGIPARFSGSGSRTDFTLTISSLEPEDVAVYYCQQSNEDPYTFGQGTKLEIK
B2: D6DD3D010: humanized anti-CD14 antibody; VH SEQ ID NO: 37, VL SEQ ID NO: 39 (antibody, V domains shown)
VH: B1 VH
VL: DIVLTQSPDSLAVSLGERATINCRASESVDSYVNSFLHWYQQKPGQPPKLLIYRASNLQSGVPDRFSGSGSRTDFTLTISSLQAEDVAVYYCQQSNEDPYTFGQGTKLEIK
B3: D6DD3D015: humanized anti-CD14 antibody; VH SEQ ID NO: 57, VL SEQ ID NO: 59 (antibody, V domains shown)
VH: B1 VH
VL: DIQLTQSPSSLSASVGDRVTITCRASESVDSYVNSFLHWYQQKPGKAPKLLIYRASNLQSGVPSRFSGSGSRTDFTLTISSLQPEDVATYYCQQSNEDPYTFGQGTKLEIK
B4: D6DD3D006: humanized anti-CD14 antibody; VH SEQ ID NO: 21, VL SEQ ID NO: 23 (antibody, V domains shown)
VH: B1 VH with E16Q
VL: B1 VL
B5: D6DD3D008: humanized anti-CD14 antibody; VH SEQ ID NO: 29, VL SEQ ID NO: 31 (antibody, V domains shown)
VH: B1 VH with Y27G, T30S
VL: B2 VL
B6: D6DD3D009: humanized anti-CD14 antibody; VH SEQ ID NO: 33, VL SEQ ID NO: 35 (antibody, V domains shown)
VH: B1 VH with V2L, Y27G, T30S
VL: B2 VL
B7: D6DD3D011: humanized anti-CD14 antibody; VH SEQ ID NO: 41, VL SEQ ID NO: 43 (antibody, V domains shown)
VH: B1 VH with E16Q
VL: B2 VL
B8: D6DD3D013: humanized anti-CD14 antibody; VH SEQ ID NO: 49, VL SEQ ID NO: 51 (antibody, V domains shown)
VH: B1 VH with Y27G, T30S
VL: B3 VL
B9: D6DD3D014: humanized anti-CD14 antibody; VH SEQ ID NO: 53, VL SEQ ID NO: 55 (antibody, V domains shown)
VH: B1 VH with V2L, Y27G, T30S
VL: B3 VL
B10: D6DD3D016: humanized anti-CD14 antibody; VH SEQ ID NO: 61, VL SEQ ID NO: 63 (antibody, V domains shown)
VH: B1 VH with E16Q
VL: B3 VL
B11: D6DD3D003: humanized anti-CD14 antibody; VH SEQ ID NO: 9, VL SEQ ID NO: 11 (antibody, V domains shown)
VH: B1 VH with Y27G, T30S
VL: B1 VL
B12: D6DD3D004: humanized anti-CD14 antibody; VH SEQ ID NO: 13, VL SEQ ID NO: 15 (antibody, V domains shown)
VH: B1 VH with V2L, Y27G, T30S
VL: B1 VL
B13: D6DD3D007: humanized anti-CD14 antibody; VH SEQ ID NO: 25, VL SEQ ID NO: 27 (antibody, V domains shown)
VH: B1 VH with E16Q, Y27G, T30S, P41H
VL: B2 VL
B14: D6DD3D012: humanized anti-CD14 antibody; VH SEQ ID NO: 45, VL SEQ ID NO: 47 (antibody, V domains shown)
VH: B1 VH with E16Q, Y27G, T30S, P41H
VL: B3 VL
B15: D6DD3D002: humanized anti-CD14 antibody; VH SEQ ID NO: 5, VL SEQ ID NO: 7 (antibody, V domains shown)
VH: B1 VH with E16Q, Y27G, T30S, P41H
VL: B1 VL

The molecules below were run against T1, recombinant human CD14 (B294801, histidine tagged) (assay: Biacore 8K kinetic and affinity test of humanized antibodies (Example 8)). Conditions: Biacore 8K, KD=koff/kon, analyte B294801 0.78125-25 nM, capture 1 μg/mL.
Format: binding
Description: Experimental reagents and consumables included Protein A chip (Cytiva, 29127556). Main instruments and equipment included Biacore 8K (Cytiva), shaker (Taicang Huamei), ELISA system (Molecular Devices), centrifuge (Baiyang), ultrapure water system (Millipore), and thermostatic incubator (BLUE PARD).
The antigen used for the binding affinity measurements is B294801. This antigen is a recombinant human CD14 antigen that is histidine tagged and has a molecular weight of 36 kDa. B294801 was purchased from Shanghai BaiYing Biotechnology Co., Ltd (name: Recombinant Human CD14/His Protein; Batch number 20200518A22). D6DD3D001 is a mouse antibody, and D6DD3D002-D6DD3D0016 are humanized antibodies. The antibodies are recombinant, human (hFc Tag). Selected parameters of the experimental samples are shown in Table 8-1, with MW referring to molecular weight in kiloDaltons (kDa).
The Biacore 8K platform was used to test the kinetic and affinity properties of the antibody. The operation was carried out according to the system instructions and indications.
The equilibrium dissociation constant (KD) reflects the affinity of the antibody to the target, with a smaller value indicating a stronger affinity. KD (in units of molarity) is determined by the ratio of the dissociation rate constant (koff) and the association rate constant (kon), that is, KD=Koff/kon.
15 humanized antibodies (numbered D6DD3D002-D6DD3D0016) and 1 mouse antibody (number D6DD3D001) were tested. For the experiments, the analyte solution comprises the B294801 antigen with an analyte concentration of 0.78125 nM, 1.5625 nM, 3.125 nM, 6.25 nM, 12.5 nM, and 25 nM. The capture concentration was 1 μg/mL. In Table 8-3, the change factor is the ratio of the equilibrium dissociation constant KD of the humanized to mouse antibody, and reflects the change in affinity after humanization.

Molecule | Kd [nM]
B1 | 0.529
B2 | 0.555
B3 | 0.532
B4 | 0.602
B5 | 1.57
B6 | 1.89
B7 | 0.639
B8 | 1.61
B9 | 1.8
B10 | 0.672
B11 | 1.62
B12 | 1.99

Same assay, conditions: Biacore 8K, analyte B294801 0.78125-25 nM, capture 1 μg/mL

Molecule | koff (1:1 binding) [s⁻¹] | kon (1:1 binding) [M⁻¹ s⁻¹]
B1 | 0.000798 | 1.51e+06
B2 | 0.00105 | 1.9e+06
B3 | 0.000843 | 1.59e+06
B4 | 0.000862 | 1.43e+06
B13 | 0.00342 | 2.11e+06
B5 | 0.00329 | 2.09e+06
B6 | 0.00379 | 2.01e+06
B7 | 0.00109 | 1.71e+06
B14 | 0.00293 | 1.64e+06
B8 | 0.00282 | 1.76e+06
B9 | 0.00318 | 1.77e+06
B10 | 0.000904 | 1.35e+06
B15 | 0.00292 | 1.69e+06
B11 | 0.00295 | 1.82e+06
B12 | 0.00326 | 1.64e+06

Same assay, conditions: Biacore; B294801 antigen

Molecule | affinity compared with the mouse antibody D6DD3D001
B1 | approximately equivalent to the affinity of the antibody D6DD3D001 before humanization
B2 | approximately equivalent to the affinity of the antibody D6DD3D001 before humanization
B3 | approximately equivalent to the affinity of the antibody D6DD3D001 before humanization

Same assay, conditions: relative to mouse antibody D6DD3D001

Molecule | Change Factor (ratio of KD of the humanized to mouse antibody)
B1 | 1.09
B2 | 1.14
B3 | 1.10
B4 | 1.24
B5 | 3.24
B6 | 3.90
B7 | 1.32
B8 | 3.32
B9 | 3.71
B10 | 1.39
B11 | 3.34
B12 | 4.10

Source: patent publication US20250011456A1, “ANTIBODIES AGAINST CD14 AND USES THEREOF” (Villanelle Life Science Inc, priority 2023, published 2025)
